B1: pituitary tumor transforming gene 1 (PTTG1) protein (other)
chain: MATLIYVDKENGEPGTRVVAKDGLKLGSGPSIKALDGRSQVSTPRFGKTFDAPPALPKATRKALGTVNRATEKSVKTKGPLKQKQPSFSAKKMTEKTVKAKSSVPASDDAYPEIEKFFPFNPLDFESFDLPEEHQIAHLPLSGVPLMILDEERELEKLFQLGPPSPVKMPSPPWESNLLQSPSSILSTLDVELPPVCCDIDI
modifications: biotinylated with biotin-XX sulfosuccinimidyl ester (protein array); biotin-lysine labeled during synthesis (as prey in pull-down); endogenous and unlabeled in co-immunoprecipitation
notes: Used as biotinylated probe on the array, as endogenous protein of HCT116 lysates in co-IP, and as in vitro translated prey in the pull-down; also called securin
B2: GST-Aurora Kinase A (protein)
chain: MDRSKENCISGPVKATAPVGGPKRVLVTQQFPCQNPLPVNSGQAQRVLCPSNSSQRIPLQAQKLVSSHKPVQNQKQKQLQATSVPHPVSRPLNNTQKSKQPLPSAPENNPEEELASKQKNEESKKRQWALEDFEIGRPLGKGKFGNVYLAREKQSKFILALKVLFKAQLEKAGVEHQLRREVEIQSHLRHPNILRLYGYFHDATRVYLILEYAPLGTVYRELQKLSKFDEQRTATYITELANALSYCHSKRVIHRDIKPENLLLGSAGELKIADFGWSVHAPSSRRTTLCGTLDYLPPEMIEGRMHDEKVDLWSLGVLCYEFLVGKPPFEANTYQETYKRISRVEFTFPDFVTEGARDLISRLLKHNPSQRPMLREVLEHPWITANSSKPSNCQNKESASKQS

Legend:
BSA = target: T1, BSA (bovine, UniProt P02769 25-607); assay: protein microarray probed with biotinylated PTTG1, Streptavidin-Alexa Fluor 647
T1 construct: Control on the protein microarray; also called bovine serum albumin
Protocol: The human Protoarray nc3.0 study was performed as described by the manufacturer (obtained from Invitrogen Corporation; Carlsbad, Calif.). […] Arrays were scanned by GenePix 4000B (obtained from Molecular Devices Corporation; Sunnyvale, Calif.), and images analyzed using ProtoArray Prospector (Invitrogen).

His-tagged PTTG1 = target: T2, His-tagged PTTG1
T2 chain: B1 chain

T1 sequence (P02769 25-607 limits assumed): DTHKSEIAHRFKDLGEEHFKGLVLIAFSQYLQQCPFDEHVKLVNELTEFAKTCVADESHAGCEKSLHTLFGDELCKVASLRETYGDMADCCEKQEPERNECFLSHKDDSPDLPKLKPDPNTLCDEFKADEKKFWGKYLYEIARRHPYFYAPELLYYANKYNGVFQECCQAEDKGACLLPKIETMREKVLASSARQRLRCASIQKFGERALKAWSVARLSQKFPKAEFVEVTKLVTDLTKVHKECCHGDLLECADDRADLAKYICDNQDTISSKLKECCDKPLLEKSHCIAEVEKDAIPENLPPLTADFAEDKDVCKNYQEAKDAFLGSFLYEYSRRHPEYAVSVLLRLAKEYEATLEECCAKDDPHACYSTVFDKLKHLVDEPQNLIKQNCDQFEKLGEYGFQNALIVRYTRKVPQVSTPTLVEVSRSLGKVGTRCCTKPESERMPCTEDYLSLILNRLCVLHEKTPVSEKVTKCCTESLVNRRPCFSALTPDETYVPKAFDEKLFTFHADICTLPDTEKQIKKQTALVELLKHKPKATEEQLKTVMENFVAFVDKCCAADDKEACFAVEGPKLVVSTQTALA

Row | Binder | binding result (BSA) | Aurora Kinase A phosphorylation of histone H3 (Ser10), in vitro kinase assay, Western blot (His-tagged PTTG1) | Aurora Kinase A phosphorylation of histone H3 (Ser10), in vitro kinase assay, Western blot (control His-GST protein)
1 | B1 | no binding |  | 
2 | B2 |  | Addition of PTTG1 dose-dependently inhibited Aurora Kinase A histone H3 phosphorylation | GST-His has no effect at the same concentration

Reference: patent US20110009473A1 (CEDARS SINAI MEDICAL CENTER, published 2011)
